This note sets out measurements from patent EP4289863A9 (Shanghai Huaota Biopharmaceutical Co., Ltd., dated 2024).

The target in test [1] is T1, human IL-36R (human, UniProt Q9HB29 20-575).
T1 sequence (looked up): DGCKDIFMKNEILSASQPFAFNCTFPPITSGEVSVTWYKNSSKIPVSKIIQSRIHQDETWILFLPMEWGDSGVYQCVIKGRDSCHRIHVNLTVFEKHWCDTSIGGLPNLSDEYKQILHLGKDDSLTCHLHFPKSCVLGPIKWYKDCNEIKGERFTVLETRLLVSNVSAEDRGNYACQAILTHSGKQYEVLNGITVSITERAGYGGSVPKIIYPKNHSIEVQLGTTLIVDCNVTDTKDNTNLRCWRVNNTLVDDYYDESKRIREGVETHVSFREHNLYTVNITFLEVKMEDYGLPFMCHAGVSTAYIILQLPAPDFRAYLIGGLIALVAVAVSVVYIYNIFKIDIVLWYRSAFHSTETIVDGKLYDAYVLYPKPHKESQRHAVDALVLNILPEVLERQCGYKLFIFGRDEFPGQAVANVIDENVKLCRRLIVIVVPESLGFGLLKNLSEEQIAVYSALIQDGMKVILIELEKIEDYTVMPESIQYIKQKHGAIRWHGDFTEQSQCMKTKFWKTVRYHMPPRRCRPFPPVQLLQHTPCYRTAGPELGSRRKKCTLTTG
Description: cell-based or functional assay.

The target of a further test is T2, Human IL-17A (human, UniProt Q16552 24-155).
T2 construct: also called IL-17A recombinant protein; IL-17A soluble recombinant protein
T2 sequence (looked up): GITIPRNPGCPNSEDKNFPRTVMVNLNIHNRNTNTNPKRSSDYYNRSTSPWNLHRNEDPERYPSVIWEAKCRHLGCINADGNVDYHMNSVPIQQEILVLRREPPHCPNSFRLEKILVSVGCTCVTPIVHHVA
The test can be described thus: ELISA, human IL-17A coated at 1 µg/ml.

Test [2] addresses T1, human IL-36R. The test can be described thus: flow cytometry on CHO-K1-huIL-36R-5E10/2F10 cells. For orientation: Flow cytometry measures light scatter and fluorescence of single cells or particles in a stream.
For test [3], the target named is T3, IL36R (analyte of Table 17) (Homo sapiens (Human), UniProt Q9HB29 20-335).
T3 sequence: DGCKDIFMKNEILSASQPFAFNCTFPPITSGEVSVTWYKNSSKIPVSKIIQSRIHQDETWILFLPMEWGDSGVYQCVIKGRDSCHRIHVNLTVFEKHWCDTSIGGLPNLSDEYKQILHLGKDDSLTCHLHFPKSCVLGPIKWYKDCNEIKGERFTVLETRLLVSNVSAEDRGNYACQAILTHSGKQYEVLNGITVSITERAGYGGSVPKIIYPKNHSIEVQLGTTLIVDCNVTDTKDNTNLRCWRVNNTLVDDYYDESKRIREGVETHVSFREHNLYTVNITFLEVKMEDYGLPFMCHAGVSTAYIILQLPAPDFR
The test can be described thus: SPR Biacore 8K, antibody captured on anti-human chip, antigen as analyte, 1:1 model. (In general: SPR reads the build-up and loss of mass on a sensor chip optically.)

Test [4] has as its target T4, IL17A (analyte of Table 17) (Homo sapiens (Human), UniProt Q16552 24-155).
T4 sequence: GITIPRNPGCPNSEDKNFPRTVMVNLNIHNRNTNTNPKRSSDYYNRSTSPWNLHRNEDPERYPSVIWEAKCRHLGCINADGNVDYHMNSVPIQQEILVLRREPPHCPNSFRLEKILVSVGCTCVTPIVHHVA
Described as above.

B1: IL17A-IL36R bispecific antibody 700005 (bispecific antibody)
heavy (part 1 of 2): QVQLVQSGSELKKPGASVKVSCKASEYIFTNYGMNWVKQAPGQGFEWMGWIDTNTGEPTYAQGFTGRFVFSLDTSVSTAYLQISSLKAEDTATYYCANYGWGYFDYWGQGTTVTVSS
heavy (part 2 of 2): GGGGSGGGGSGGGGSGGGGSQIVLTQSPGTLSLSPGERATLSCRASSSVSSSYLHWYQQKPGQAPRLWIYSTSSRATGIPDRFSGSGSGTDFTLTISRLEPEDFATYYCQQFQSSPLTFGQGTKLEIKGGGGSGGGGSGGGGSQVQLVQSGAEVKKPGASVKVSCKASGYTFTSSWMHWAKQAPGQGLEWIGEIHPNSAKTNYNQKFQGRVTMTRDTSISTAYMELSRLRSDDTAVYYCARVDYGKPWFAYWGQGTLVTVSS
light: DVVMTQTPPSLPVNPGEPASISCRSSQSLVHSNGYTYLHWYLQKPGQSPQLLIYKVSNHLSGVPDRFSGSGSGTDFTLKISWVEAEDVGVYFCSQSTHVPYTFGGGTKLEIKRTVAAPSVFIFPPSDEQLKSGTASVVCLLNNFYPREAKVQWKVDNALQSGNSQESVTEQDSKDSTYSLSSTLTLSKADYEKHKVYACEVTHQGLSSPVTKSFNRGEC
notes: also called 70005; not shown: heavy constant region CH1-CH2-CH3
B1: in the test with human IL-36R [1], the “EC50 of inhibition of IL-6 content, NCI/ADR-RES cells stimulated with IL-36β” value is 0.45 nM. Further, it took 0.18 nM to reach a half-maximal effect with Human IL-17A (EC50). In the test with human IL-36R [2], this molecule yielded an EC50 of 0.747 nM. In test [3], this molecule had a Kd of 0.35 nM, a koff of 7.2e-05 s⁻¹ and a kon of 205000 M⁻¹ s⁻¹. In test [4], this molecule registered a Kd of 6.1 pM, a dissociation rate constant (koff) of 4.13e-05 s⁻¹ and a kon of 6.77e+06 M⁻¹ s⁻¹.

The EC50 is the midpoint of the concentration-response curve. Low readings indicate greater potency, high ones weaker potency. As a reminder, the Kd is the constant that tells how readily two partners part at equilibrium. One may read the koff as the first-order rate constant of dissociation. High values mean fast dissociation, low ones slow dissociation. The kon is a measure of how fast the partners come together.
